From publication PMC6547884, “Molecular Basis for poly(A) RNP Architecture and Recognition by the Pan2-Pan3 Deadenylase” (Cell, 2019)

What was measured:
[1] = target: the molecule itself; test: cryo-EM structure; Pan2cat-Pan3 with 90A RNA and three Pab1, reconstituted as for SEC and purified on Superose 6; overall nominal resolution 4.8 Å, focused maps 4.7 and 4.5 Å
[2] = target: the molecule itself; test: cryo-EM structure; substrate-free Pan2cat-Pan3Δ(1-162); Volta phase plate; nominal global resolution about 4.5 Å
[3] = target: T1, Ccr4(110-837)-Caf1(146-433) complex (S. cerevisiae, UniProt P31384 110-837; P39008 146-433); test: SEC; reconstitution: purified Not1(754-1000) mixed with Ccr4(110-837)-Caf1(146-433) in equimolar amounts; Superdex200 16/60, 20 mM Tris pH 7.5, 250 mM NaCl, 1 mM DTT; details: both partners purified
T1 construct: The complex is His-tagged; also called core yeast Ccr4-Caf1 nucleases; source: Trichoplusia ni Hi5 insect cells (pFastBac DUAL), purified (IMAC, heparin, SEC)
T1 sequence (looked up) 1: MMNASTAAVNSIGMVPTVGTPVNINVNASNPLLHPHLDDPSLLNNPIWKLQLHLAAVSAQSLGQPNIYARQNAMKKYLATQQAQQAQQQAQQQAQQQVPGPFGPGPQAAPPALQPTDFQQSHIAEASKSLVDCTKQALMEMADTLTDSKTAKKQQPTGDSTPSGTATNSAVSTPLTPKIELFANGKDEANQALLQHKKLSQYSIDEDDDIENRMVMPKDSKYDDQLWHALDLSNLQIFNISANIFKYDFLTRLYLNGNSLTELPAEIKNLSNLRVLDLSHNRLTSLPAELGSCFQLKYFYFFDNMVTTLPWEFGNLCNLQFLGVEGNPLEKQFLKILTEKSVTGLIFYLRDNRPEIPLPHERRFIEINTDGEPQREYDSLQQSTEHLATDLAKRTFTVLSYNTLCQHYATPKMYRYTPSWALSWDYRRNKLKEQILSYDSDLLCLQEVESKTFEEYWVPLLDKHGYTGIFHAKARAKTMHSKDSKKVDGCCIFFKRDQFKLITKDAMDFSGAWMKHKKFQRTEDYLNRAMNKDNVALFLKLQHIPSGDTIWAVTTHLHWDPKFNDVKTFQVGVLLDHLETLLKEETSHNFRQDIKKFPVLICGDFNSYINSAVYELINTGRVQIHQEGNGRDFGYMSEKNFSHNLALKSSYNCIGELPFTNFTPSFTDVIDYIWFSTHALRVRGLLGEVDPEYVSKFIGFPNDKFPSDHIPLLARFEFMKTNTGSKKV
T1 sequence (looked up) 2: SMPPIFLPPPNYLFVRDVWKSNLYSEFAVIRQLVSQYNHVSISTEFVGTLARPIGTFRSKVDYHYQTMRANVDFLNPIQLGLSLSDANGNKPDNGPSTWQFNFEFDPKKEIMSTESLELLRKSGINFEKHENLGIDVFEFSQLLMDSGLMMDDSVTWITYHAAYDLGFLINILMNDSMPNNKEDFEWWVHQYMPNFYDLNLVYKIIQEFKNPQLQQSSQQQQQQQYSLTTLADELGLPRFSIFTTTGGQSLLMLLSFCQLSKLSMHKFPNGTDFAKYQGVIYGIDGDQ

B1: Pan3 (S. cerevisiae, C-terminal deca-histidine tag) (natural protein, UniProt P36102 1-679, looked up)
chain: MDKINPDWAKDIPCRNITIYGYCKKEKEGCPFKHSDNTTATTINDVPPPIDVGEATTPTMTSVPKFNAKVSASFTPMTVGSDSLTTVTNTTSAATNATGNIAMAATSATASTVNPMINPIVNSSLVNNNNNNSNISISIPTTASSSNYDPFNAPIFTPSSTSSIHTNANAHSFPFPSIANSGGININATDDNSNNMSMANNVPPPMQPPPIESSNLKYPRIYPPPHSLLQYHLYAPEQPSSLKSLLKPNERSADQLFIPNNIREDLTKKNLSILQVFPSSGKVIPSIVQDYFNLVPLNFNNNDFLNKTTLFKVFSNYDGKAYVLKRLPNIDKSMNPNKISKIYQIWSKINCTNLIKFRDIFQTTKFGDLSICLVFDYYPNSLSLYDYHFVNFPKFPITNNYLWIYLVQLTNVINSIHSQNLSIGNTLNWRKVLITGDPGRIKLSHCNFMDLLFNDDTDTVVSSGGSTIEGQQQLDYKYLGELLFNLSINIENSNNNTAPKEYRLEEITPQSIDDMRQIDDKFKDVLKYLISDNGDSKKSIHDLTSHFYDKMFMVLESSQTYTEYMESVLSRELENGRLFRLVNKLNCIFGRIESRIDINWSESGTKFPIILFYDYVFHQVDSNGKPIMDLTHVLRCLNKLDAGIQEKLMLVTPDELNCIIISYKELKDLIESTFRSITQ
notes: Pan3, S. cerevisiae; The Pan3 chain of m1, written alone for the pairs that touch in the structure and for co-purification; also called Pan3straight; Pan3bent; source: Trichoplusia ni Hi5 insect cells, co-expressed with Pan2, purified as a complex; not shown: His10, C-terminal, kept
- stoichiometry N [1]: 2

B2: Pan3Δ(1-162) (domain or fragment, S. cerevisiae, UniProt P36102 163-679, looked up)
chain: SIHTNANAHSFPFPSIANSGGININATDDNSNNMSMANNVPPPMQPPPIESSNLKYPRIYPPPHSLLQYHLYAPEQPSSLKSLLKPNERSADQLFIPNNIREDLTKKNLSILQVFPSSGKVIPSIVQDYFNLVPLNFNNNDFLNKTTLFKVFSNYDGKAYVLKRLPNIDKSMNPNKISKIYQIWSKINCTNLIKFRDIFQTTKFGDLSICLVFDYYPNSLSLYDYHFVNFPKFPITNNYLWIYLVQLTNVINSIHSQNLSIGNTLNWRKVLITGDPGRIKLSHCNFMDLLFNDDTDTVVSSGGSTIEGQQQLDYKYLGELLFNLSINIENSNNNTAPKEYRLEEITPQSIDDMRQIDDKFKDVLKYLISDNGDSKKSIHDLTSHFYDKMFMVLESSQTYTEYMESVLSRELENGRLFRLVNKLNCIFGRIESRIDINWSESGTKFPIILFYDYVFHQVDSNGKPIMDLTHVLRCLNKLDAGIQEKLMLVTPDELNCIIISYKELKDLIESTFRSITQ
notes: Pan3, S. cerevisiae, lacking residues 1-162; Pan3 chain of the substrate-free Pan2cat-Pan3Δ(1-162) cryo-EM sample; also called Pan3ΔN; source: Trichoplusia ni Hi5 insect cells, co-expressed with Pan2cat, purified as a complex
- stoichiometry N [2]: 2

B3: Not1(754-1000) (domain or fragment, S. cerevisiae, UniProt P25655 754-1000, looked up)
chain: RSRPVQEMIPLKFFAVDEVSCQINQEGAPKDVVEKVLFVLNNVTLANLNNKVDELKKSLTPNYFSWFSTYLVTQRAKTEPNYHDLYSKVIVAMGSGLLHQFMVNVTLRQLFVLLSTKDEQAIDKKHLKNLASWLGCITLALNKPIKHKNIAFREMLIEAYKENRLEIVVPFVTKILQRASESKIFKPPNPWTVGILKLLIELNEKANWKLSLTFEVEVLLKSFNLTTKSLKPSNFINTPEVIETLSG
notes: source: E. coli BL21 DE3, purified (IMAC, tag cleavage, heparin, SEC); not shown: SUMO, N-terminal, cleaved; His tag, N-terminal, cleaved
- binding result [3]: binds
